In US20260062487A1 one finds copies per cell of the peptide recovered by immunoprecipitation (copies per cell) data, which are given here for two substances.

Assay [1] addresses HLA-A*01:01 with … (ERGIC3) from cells (human). Kind of assay: IP-MS, K562-A*01:01 lysate.
In assay [2] the target is HLA-A*01:01 with … (RBM4) from cells (human). Kind of assay: IP-MS, K562-A*01:01 lysate.
Assay [3] deals with HLA-A*01:01 with … (UBR2) from cells (human). Kind of assay: IP-MS, K562-A*01:01 lysate.
Assay [4] has as its target off-target HLA-A*01:01_… (PTS) on cells (human). Kind of assay: IP-MS, K562-A*01:01 lysate.
The target of assay [5] is HLA-A*01:01 with … (DSG3) from cells (human). Kind of assay: IP-MS, NCI-H1703 lysate, Rep1.
Assay [6] has as its target HLA-A*01:01 with … (DSG4) from cells (human). Kind of assay: IP-MS, NCI-H1703 lysate, Rep1.
The target in assay [7] is HLA-A*01:01 with … (ERGIC3) from cells (human). Kind of assay: IP-MS, NCI-H1703 lysate, Rep1.
Assay [8] deals with HLA-A*01:01 with … (RBM4) from cells (human). The assay can be described thus: IP-MS, NCI-H1703 lysate, Rep1.
For assay [9], the target named is HLA-A*01:01 with … (ROBO1) on cells (human). Kind of assay: IP-MS, NCI-H1703 lysate, Rep1.
In assay [10] the target is HLA-A*01:01 with … (UBR2) from cells (human). The assay can be described thus: IP-MS, NCI-H1703 lysate, Rep1.
Assay [11] addresses HLA-PEPTIDE target A*01:01_… (G2) on cells (human). Kind of assay: IP-MS, NCI-H1703 lysate, Rep1.
The target of assay [12] is off-target HLA-A*01:01_… (ICE1) on cells (human). The assay can be described thus: IP-MS, NCI-H1703 lysate, Rep1.
Assay [13] has as its target off-target HLA-A*01:01_… (KDM7A) on cells (human). Kind of assay: IP-MS, NCI-H1703 lysate, Rep1.
Assay [14] deals with off-target HLA-A*01:01_… (PTS) on cells (human). Kind of assay: IP-MS, NCI-H1703 lysate, Rep1.
Assay [15] concerns the target HLA-A*01:01 with … (DSG3) from cells (human). The assay can be described thus: IP-MS, NCI-H1703 lysate, Rep2.
Assay [16] deals with HLA-A*01:01 with … (DSG4) from cells (human). Kind of assay: IP-MS, NCI-H1703 lysate, Rep2.
Assay [17] concerns the target HLA-A*01:01 with … (ERGIC3) from cells (human). Kind of assay: IP-MS, NCI-H1703 lysate, Rep2.
Assay [18] has as its target HLA-A*01:01 with … (RBM4) from cells (human). The assay can be described thus: IP-MS, NCI-H1703 lysate, Rep2.
In assay [19] the target is HLA-A*01:01 with … (ROBO1) on cells (human). The assay can be described thus: IP-MS, NCI-H1703 lysate, Rep2.
In assay [20] the target is HLA-A*01:01 with … (UBR2) from cells (human). Kind of assay: IP-MS, NCI-H1703 lysate, Rep2.
In assay [21] the target is HLA-PEPTIDE target A*01:01_… (G2) on cells (human). The assay can be described thus: IP-MS, NCI-H1703 lysate, Rep2.
Assay [22] addresses off-target HLA-A*01:01_… (ICE1) on cells (human). The assay can be described thus: IP-MS, NCI-H1703 lysate, Rep2.
The target of assay [23] is off-target HLA-A*01:01_… (KDM7A) on cells (human). Kind of assay: IP-MS, NCI-H1703 lysate, Rep2.
The target in assay [24] is off-target HLA-A*01:01_… (PTS) on cells (human). Kind of assay: IP-MS, NCI-H1703 lysate, Rep2.
In assay [25] the target is HLA-A*01:01 with … (DSG3) from cells (human). The assay can be described thus: IP-MS, NCI-H1703 lysate, Rep1 (peptide also 0 with W6/32).
The target in assay [26] is HLA-A*01:01 with … (DSG4) from cells (human). The description is as above.
Assay [27] deals with HLA-A*01:01 with … (DSG3) from cells (human). Kind of assay: IP-MS, NCI-H1703 lysate, Rep2 (peptide also 0 with W6/32).
The target in assay [28] is HLA-A*01:01 with … (DSG4) from cells (human). The assay is described as above.

With W6/32 antibody, the copies per cell of the peptide recovered by immunoprecipitation (copies per cell) in assay [1] was determined as 96; in assay [2], 1000; in [3] it was 6; in assay [4], 91; in assay [5], 0; in assay [6] it was 0. Moreover, the copies per cell of the peptide recovered by immunoprecipitation (copies per cell) was found to be 3360 in assay [7]; 16700 in assay [8]; 554 in assay [9]; 891 in assay [10]; 3790 in assay [11]; 2660 in assay [12]. In addition, the copies per cell of the peptide recovered by immunoprecipitation (copies per cell) in assay [13] turned out to be 2; in assay [14], 2930; in [15], 0; in assay [16] it was 0; in assay [17], 3350; in assay [18], 16700. Besides, the copies per cell of the peptide recovered by immunoprecipitation (copies per cell) in [19] was determined as 517; in assay [20], 876; in assay [21], 4040; in assay [22], 2740; in [23], 2; in [24] it was 2980.

As for control IgG antibodies (antibody), the copies per cell of the peptide recovered by immunoprecipitation (copies per cell) was determined as 25 in [7]; 113 in assay [8]; 6 in assay [10]; 35 in [12]; 32 in assay [14]; 15 in assay [17]. For the same substance, the copies per cell of the peptide recovered by immunoprecipitation (copies per cell) in [18] is 79; in [20], 4; in assay [22], 21; in [24] it was 25; in [25], 0; in assay [26], 0. The copies per cell of the peptide recovered by immunoprecipitation (copies per cell) in [27] and in assay [28] was 0 each time.
